Article PMC11931385, “Structural and functional analysis of cancer-associated missense variants in the retinoblastoma protein pocket domain” (The Journal of Biological Chemistry, 2025)
Changes are numbered by the printed parent chain. Names and notes keep the numbering of the source. No end group written: not given here. TMR = tetramethyl rhodamine dye

T1: Rb^P A490S (human, UniProt P06400 380-788, A490S)
T1 construct: also called variant 15
T1 sequence (looked up): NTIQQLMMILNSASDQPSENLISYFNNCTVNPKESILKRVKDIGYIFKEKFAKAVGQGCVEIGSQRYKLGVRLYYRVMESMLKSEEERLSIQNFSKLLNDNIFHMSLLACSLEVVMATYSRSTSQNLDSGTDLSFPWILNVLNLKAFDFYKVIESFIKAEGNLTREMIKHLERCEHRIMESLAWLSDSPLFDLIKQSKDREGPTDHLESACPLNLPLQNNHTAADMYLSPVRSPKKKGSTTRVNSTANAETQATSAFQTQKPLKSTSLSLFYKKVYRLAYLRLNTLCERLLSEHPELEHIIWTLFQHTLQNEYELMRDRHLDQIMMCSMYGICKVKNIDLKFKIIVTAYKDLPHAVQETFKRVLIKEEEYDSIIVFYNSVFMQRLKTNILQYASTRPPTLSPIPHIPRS

T2: Rb^P K530I (human, UniProt P06400 380-788, K530I)
T2 construct: also called variant 21
T2 sequence (looked up): T1 sequence (looked up) with S111A, K151I

T3: Rb^P Y606C (human, UniProt P06400 380-788, Y606C)
T3 construct: also called variant 37
T3 sequence (looked up): T1 sequence (looked up) with S111A, Y227C

T4: Rb^P H686Y (human, UniProt P06400 380-788, H686Y)
T4 construct: also called variant 58
T4 sequence (looked up): T1 sequence (looked up) with S111A, H307Y

T5: Rb^P R451C (human, UniProt P06400 380-788, R451C)
T5 construct: also called variant 5
T5 sequence (looked up): T1 sequence (looked up) with R72C, S111A

B1: TMR-E2F1^TD, peptide of the E2F1 transactivation domain (peptide)
peptide: {TMR}-GEGIRDLFDCDFGDLTPLD
notes: also called E2F^TD; source: synthetic peptide, bought: GenScript
B2: TMR-E7^LxCxE, LxCxE peptide of the E7 oncoprotein from HPV (peptide)
peptide: DLYCYEQLN
modifications: also: TMR label, position not given here
notes: source: synthetic peptide, bought: GenScript

Key:
Test in all cases: fluorescence polarisation; 37 °C, after the 25 °C reading ramped over 7 min to 37 °C and 2 min incubation; unlabeled Rb^P against 1.5 nM TMR-E2F1^TD or 7.5 nM TMR-E7^LxCxE; 25 mM Tris pH 8.0, 200 mM NaCl, 1 mM DTT, 0.1% Tween-20; apparent Kd
Details in all cases: both partners purified
[1] = target: T1, Rb^P A490S
[2] = target: T2, Rb^P K530I
[3] = target: T3, Rb^P Y606C
[4] = target: T4, Rb^P H686Y
[5] = target: T5, Rb^P R451C

Binder	Kd [1] [nM]	Kd [2] [nM]	Kd [3] [nM]	Kd [4] [nM]	Kd [5] [nM]
B1	29	1680	27	35	51
B2	15	20	23	14	19
